In patent US11090322B2, “Anthracycline disulfide intermediates, antibody-drug conjugates and methods” (priority 2014, dated 2021):

B1: ADC-110 (conjugate)
VH: QVQLVQSGAEVKKPGSSVKVSCKASGGIFSNHAISWVRQAPGQGLEWMGGIIPIFGTANYAQKFQGRVTITADESTSTAFMELSSLRSEDTAVYYCAREWADVFDIWGQGTMVTVSS
VL: EIVLTQSPLSLPVTPGEPASISCRSSQSLLHSNGYNYLDWYLQKPGQSPQLLIYLGVNSVSGVPDRFSGSGSGTDFTLKISRVEAEDVGVYYCMQALQTPWTFGQGTKVEIK

Legend:
tumor models = conditions: cited from earlier work
[1] = cited from earlier work
KPL4 tumor model = test: In vivo tumor growth inhibition, KPL4 tumor model; parameters: species or system scid beige mice; conditions: single IV treatment Day 0 at 3 mg/kg; non specific anti-CD33 controls; FIG. 4
Description: When tumors reached a mean tumor volume of 100-250 mm3, they were grouped into 9 groups of 8-10 mice each. A single treatment was administered intravenously via the tail vein on Day 0 as follows: (01) Vehicle: Histidine Buffer #8: 20 mM Histidine Acetate, pH 5.5, 240 mM Sucrose, 0.02% PS 20, (02) Thio Hu anti-Her2 7C2 LC K149C-(ethylmaleimide) 0.3 mg/kg 138, (03) Thio Hu anti-Her2 7C2 LC K149C-(ethylmaleimide) 1 mg/kg 138, (04) Thio Hu anti-Her2 7C2 LC K149C-(ethylmaleimide) 3 mg/kg 138, (05) Thio Hu anti-Her2 7C2 LC K149C-(LD-57) 0.3 mg/kg 109, (06) Thio Hu anti-Her2 7C2 LC K149C-(LD-57) 1 mg/kg 109, (07) Thio Hu anti-Her2 7C2 LC K149C-(LD-57) 3 mg/kg 109, (08) Thio Hu Anti-CD33 15G15.3 LC K149C-(ethylmaleimide) 3 mg/kg 139, and (09) Thio Hu anti-CD33 15G15.3 LC K149C-(LD-57) 3 mg/kg 110.
(§1) Tumors were established and allowed to grow to 150-200 mm^3 in volume (as measured using calipers) before a single treatment on day 0. Tumor volume was measured using calipers according to the formula: V (mm^3)=0.5A×B^2, where A and B are the long and short diameters, respectively. […] Data collected from each experimental group (10 mice per group) were expressed as mean±SE.

SK-BR-3 cells = test: In vitro cell proliferation assay (CellTiter-Glo), SK-BR-3 cell viability at 5 days; format: cell-based; conditions: SK-BR-3, 5 days, concentrations in μg/ml; FIG. 1 and FIG. 2
Description: Generally, the cytotoxic or cytostatic activity of an antibody-drug conjugate (ADC) is measured by: exposing mammalian cells having receptor proteins, e.g. HER2, to the antibody of the ADC in a cell culture medium; culturing the cells for a period from about 6 hours to about 5 days; and measuring cell viability. Cell-based in vitro assays were used to measure viability (proliferation), cytotoxicity, and induction of apoptosis (caspase activation) of the ADC of the invention.
The CellTiter-Glo® Luminescent Cell Viability Assay is a commercially available (Promega Corp., Madison, Wis.), homogeneous assay method based on the recombinant expression of Coleoptera luciferase (U.S. Pat. Nos. 5,583,024; 5,674,713; 5,700,670). This cell proliferation assay determines the number of viable cells in culture based on quantitation of the ATP present, an indicator of metabolically active cells (Crouch et al (1993) J. Immunol. Meth. 160:81-88; U.S. Pat. No. 6,602,677). […]
The homogeneous “add-mix-measure” format results in cell lysis and generation of a luminescent signal proportional to the amount of ATP present. […] Viable cells are reflected in relative luminescence units (RLU). […]
Efficacy of ADC was measured by a cell proliferation assay employing the following protocol ([…] GLO™ Luminescent Cell Viability Assay, Promega Corp. Technical Bulletin TB288; Mendoza et al (2002) Cancer Res. 62:5485-5488): • 1. […]

[2] = system: MMTV-HER2 Fo5 transgenic mammary tumors; test: In vivo tumor growth inhibition, MMTV-HER2 Fo5 transgenic mammary tumor allograft; parameters: species or system CRL nu/nu mice; conditions: FIG. 5
Description: For example, the in vivo efficacy of an anti-HER2 ADC of the invention can be measured by a high expressing HER2 transgenic explant mouse model (Phillips et al (2008) Cancer Res. 68:9280-90). […] Subjects were treated once with ADC at certain dose levels (mg/kg) and placebo buffer control (Vehicle) and monitored over two weeks or more to measure the time to tumor doubling, log cell kill, and tumor shrinkage.
as §1
The Fo5 mouse mammary tumor model was employed to evaluate the in vivo efficacy of antibody-drug conjugates of the invention after single dose intravenous injections, and as described previously (Phillips G D L, Li G M, Dugger D L, et al. Targeting HER2-Positive Breast Cancer with Trastuzumab-DM1, an Antibody-Cytotoxic Drug Conjugate. (2008) Cancer Res. 68:9280-90), incorporated by reference herein. […]

Molecule | efficacy in vivo tumor models (tumor models) | cytotoxicity in vitro relative to nemorubicin and doxorubicin [1] | tumor growth inhibition (KPL4 tumor model) | cell-killing activity (in vitro cell viability versus concentration) (SK-BR-3 cells) | tumor growth inhibition ([2]; dosing once IV at 1 mg/kg) | tumor growth inhibition ([2]; dosing once IV at 3 mg/kg)
COc1cccc2c1C(=O)c1c(O)c3c(c(O)c1C2=O)C[C@@](O)(C(=O)CO)C[C@@H]3O[C@H]1C[C@H]2[C@H](O[C@@H]3[C@@H](OC)OCCN32)[C@H](C)O1 [PNU-159682, 3′-deamino-3″,4′-anhydro-[2″(S)-methoxy-3″(R)-oxy-4″-morpholinyl]doxorubicin] | effective | remarkably more cytotoxic than nemorubicin and doxorubicin |  |  |  | 
B1 |  |  | little or no tumor growth inhibition | less activity | little tumor growth inhibition | modest tumor growth inhibition
